Data as given in patent US20260242478A1 (published 2026).
Where no end group is shown, it is not given here.

Key:
Anti-PSMA Fab [1] = biological target: T1, Anti-PSMA Fab (biotinylated (site not stated)); assay: clonal phage ELISA on captured biotinylated PSMA Fab pre-incubated with PSMA antigen as competitor, anti-M13 HRP detection
T1 construct: Biotinylated PSMA Fab captured on neutravidin plates in the phage ELISA; also called 006 PSMA Fab

Anti-PSMA Fab [2] = biological target: T1, Anti-PSMA Fab; assay: clonal phage ELISA on captured biotinylated PSMA Fab, anti-M13 HRP detection
Procedure: Clonal phage were harvested as crude supernatants and screened via standard ELISAs. […] Prior to the addition of clonal phage. wells were incubated with blocking buffer and PSMA antigen or blocking buffer alone. Without washing or aspirating, clonal phage supernatants were then added to the wells and incubated for a short time. Wells were then washed followed by detection of bound phage using a horse radish conjugated anti-M13 antibody.

[3] = biological target: Anti-CD28 Fab (SEQ ID NOs: 696, 697); assay: phage binding ELISA on captured anti-CD28 Fab pre-incubated with CD28 antigen as competitor
Target sequence in this assay (VH, as listed by the source, chain 1 of 2): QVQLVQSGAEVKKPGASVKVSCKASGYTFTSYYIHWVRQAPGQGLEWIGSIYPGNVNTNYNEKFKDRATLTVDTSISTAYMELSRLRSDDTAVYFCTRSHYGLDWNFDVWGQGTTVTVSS
Target sequence in this assay (VL, as listed by the source, chain 2 of 2): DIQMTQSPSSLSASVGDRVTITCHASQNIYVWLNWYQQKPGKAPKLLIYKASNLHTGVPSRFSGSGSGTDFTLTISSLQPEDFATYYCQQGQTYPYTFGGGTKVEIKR
Procedure: (§1) After panning, phage infected bacteria were plated out and colonies picked into 96 well blocks. Clonal phage was then amplified and separated from bacterial cells via centrifugation.
(§2) Clonal phage were harvested as crude supematants and screened via standard ELISAs. […] Prior to the addition of clonal phage, wells were incubated with blocking buffer and CD28 antigen or blocking buffer alone. Without washing or aspirating, clonal phage supematants were then added to the wells and incubated for a short time. Wells were then washed followed by detection of bound phage using a horse radish conjugated anti-M13 antibody. Clonal phage of interest were then sent for sequence analysis.

[4] = biological target: Anti-CD28 Fab (SEQ ID NOs: 696, 697); assay: phage binding ELISA; biotinylated anti-CD28 Fab captured on neutravidin plate, clonal phage supernatant, anti-M13 HRP detection
Target sequence in this assay (VH, as listed by the source, chain 1 of 2): as the sequence (VH, as listed by the source, chain 1 of 2) above
Target sequence in this assay (VL, as listed by the source, chain 2 of 2): as the sequence (VL, as listed by the source, chain 2 of 2) above
Procedure: as §1, §2

[5] = biological target: T2, Anti-CD28 Fab (SEQ ID NOs: 696, 697); assay: phage ELISA on captured anti-CD28 Fab; competitor CD28 antigen pre-incubated in the wells;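 note: clonal phage supernatants added to wells preloaded with CD28 antigen in blocking buffer, control wells buffer only, bound phage read via HRP-linked anti-M13 antibody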
T2 construct: Biotinylated and captured on neutravidin coated plates in the phage ELISA
T2 sequence (VH, as listed by the source, chain 1 of 2): as the sequence (VH, as listed by the source, chain 1 of 2) above
T2 sequence (VL, as listed by the source, chain 2 of 2): as the sequence (VL, as listed by the source, chain 2 of 2) above
Procedure: as §1, §2

[6] = biological target: T2, Anti-CD28 Fab (SEQ ID NOs: 696, 697); assay: phage ELISA; biotinylated anti-CD28 Fab on neutravidin plate, clonal phage supernatant, anti-M13 HRP
Procedure: as §1, §2

[7] = biological target: T3, anti-CD28 Fab (SEQ ID NOs: 696, 697); assay: phage ELISA; biotinylated anti-CD28 Fab on neutravidin plate, wells pre-incubated with CD28 antigen as competitor, anti-M13 HRP detection
T3 construct: In the phage ELISA the Fab was biotinylated and captured on neutravidin coated plates
Procedure: as §1, §2

[8] = biological target: T3, anti-CD28 Fab (SEQ ID NOs: 696, 697); assay: phage ELISA; biotinylated anti-CD28 Fab on neutravidin plate, clonal phage supernatant, anti-M13 HRP detection;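 note: crude supernatants of single phage clones picked after panning were screened for binding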

T3 sequence (VH, as listed by the source, chain 1 of 2): as the sequence (VH, as listed by the source, chain 1 of 2) above
T3 sequence (VL, as listed by the source, chain 2 of 2): as the sequence (VL, as listed by the source, chain 2 of 2) above

B1: Phage-3992 (peptide)
peptide: VFKMCVPMWMCQVS
Phage binding ELISA signal, Anti-PSMA Fab in presence of PSMA antigen (Anti-PSMA Fab [1]): 0.0687
Phage binding ELISA signal, Anti-PSMA Fab (Anti-PSMA Fab [2]): 0.635

B2: Phage-511 (peptide, not shown: large carriers)
peptide: YCDGHLPQYMAQCL
modifications: cysteine pairing not given here; also: displayed on phage as fusion to pIII, linker, pIII sequence and order not given here
notes: Clonal phage supernatant of the Peptide-87 optimisation library
Anti-CD28 Fab signal in the presence of CD28 (phage binding ELISA) [3]: 0.2
Anti-CD28 Fab signal (phage binding ELISA) [4]: 2.4

B3: Phage-509 (peptide, not shown: large carriers)
peptide: YCEGHLPEYMAKCL
modifications: cysteine pairing not given here; also: displayed on phage as fusion to pIII, linker, pIII sequence and order not given here
notes: as for B2
Anti-CD28 Fab signal in the presence of CD28 (phage binding ELISA) [3]: 0.14
Anti-CD28 Fab signal (phage binding ELISA) [4]: 2.41

B4: Phage-510 (peptide, not shown: large carriers)
peptide: YCEGHLPEYMFKCL
modifications: cysteine pairing not given here; also: displayed on phage as fusion to pIII, linker, pIII sequence and order not given here
notes: as for B2
Anti-CD28 Fab signal in the presence of CD28 (phage binding ELISA) [3]: 0.12
Anti-CD28 Fab signal (phage binding ELISA) [4]: 2.4

B5: Phage-520 (peptide)
peptide: YCMGHAPEYMAKCL
notes: tested as crude clonal phage supernatant
Phage binding ELISA, Anti-CD28 Fab signal in the presence of CD28 [5]: 0.09
Phage binding ELISA, Anti-CD28 Fab signal [6]: 2.38

B6: Phage-514 (peptide)
peptide: YCEGHLPEYMWKCL
notes: as for B5
Phage binding ELISA, Anti-CD28 Fab signal in the presence of CD28 [5]: 0.08
Phage binding ELISA, Anti-CD28 Fab signal [6]: 2.39

B7: Phage-503 (peptide, not shown: large carriers)
peptide: YCDGHLPEYMEKCL
notes: as for B2
Anti-CD28 Fab signal in the presence of CD28 (phage binding ELISA) [3]: 0.1
Anti-CD28 Fab signal (phage binding ELISA) [4]: 2.44

B8: Phage-505 (peptide, not shown: large carriers)
peptide: YCDGHLPEYMNKCL
notes: as for B2
Anti-CD28 Fab signal in the presence of CD28 (phage binding ELISA) [3]: 0.13
Anti-CD28 Fab signal (phage binding ELISA) [4]: 2.43

B9: Phage-500 (peptide, not shown: large carriers)
peptide: YCDGHLPQYMEKCL
notes: as for B2
Anti-CD28 Fab signal in the presence of CD28 (phage binding ELISA) [3]: 0.11
Anti-CD28 Fab signal (phage binding ELISA) [4]: 2.47

B10: Phage-3991 (peptide)
peptide: SVMNCVPLRMCEGF
Phage binding ELISA signal, Anti-PSMA Fab in presence of PSMA antigen (Anti-PSMA Fab [1]): 0.0968
Phage binding ELISA signal, Anti-PSMA Fab (Anti-PSMA Fab [2]): 0.644

B11: Phage-506 (peptide, not shown: large carriers)
peptide: YCAGHLPEYMDKCL
notes: as for B2
Anti-CD28 Fab signal in the presence of CD28 (phage binding ELISA) [3]: 0.12
Anti-CD28 Fab signal (phage binding ELISA) [4]: 2.42

B12: Phage-508 (peptide, not shown: large carriers)
peptide: YCAGHLPQYMAKCL
notes: as for B2
Anti-CD28 Fab signal in the presence of CD28 (phage binding ELISA) [3]: 0.17
Anti-CD28 Fab signal (phage binding ELISA) [4]: 2.41

B13: Phage-474 (peptide)
peptide: YCAGHMPQYEVKCL
notes: also called Peptide-95
Phage binding ELISA, Anti-CD28 Fab signal in the presence of CD28 [7]: 0.06
Phage binding ELISA, Anti-CD28 Fab (SEQ ID NOs: 696, 697) signal [8]: 0.22

B14: Phage-473 (peptide)
peptide: YCAGMSTIQLWLKC
notes: also called Peptide-94
Phage binding ELISA, Anti-CD28 Fab signal in the presence of CD28 [7]: 0.09
Phage binding ELISA, Anti-CD28 Fab (SEQ ID NOs: 696, 697) signal [8]: 2.16

B15: Phage-507 (peptide, not shown: large carriers)
peptide: YCDGHSAEHMAKCL
notes: as for B2
Anti-CD28 Fab signal in the presence of CD28 (phage binding ELISA) [3]: 0.08
Anti-CD28 Fab signal (phage binding ELISA) [4]: 2.41

B16: Phage-3993 (peptide)
peptide: IAVKCMPAWMCVGI
Phage binding ELISA signal, Anti-PSMA Fab in presence of PSMA antigen (Anti-PSMA Fab [1]): 0.0897
Phage binding ELISA signal, Anti-PSMA Fab (Anti-PSMA Fab [2]): 0.632

B17: Phage-513 (peptide)
peptide: YCDGHAPEYMMKCL
notes: as for B5
Phage binding ELISA, Anti-CD28 Fab signal in the presence of CD28 [5]: 0.09
Phage binding ELISA, Anti-CD28 Fab signal [6]: 2.39

B18: Phage-485 (peptide)
peptide: YCEGHSQENIWKCL
Phage binding ELISA, Anti-CD28 Fab signal in the presence of CD28 [7]: 0.07
Phage binding ELISA, Anti-CD28 Fab (SEQ ID NOs: 696, 697) signal [8]: 1.41

B19: Phage-476 (peptide)
peptide: YCMGHSHEHIWKCL
notes: also called Peptide-97
Phage binding ELISA, Anti-CD28 Fab signal in the presence of CD28 [7]: 0.07
Phage binding ELISA, Anti-CD28 Fab (SEQ ID NOs: 696, 697) signal [8]: 0.87

B20: Phage-515 (peptide)
peptide: YCEGHAAEYMAKCL
notes: as for B5
Phage binding ELISA, Anti-CD28 Fab signal in the presence of CD28 [5]: 0.08
Phage binding ELISA, Anti-CD28 Fab signal [6]: 2.38

B21: Phage-504 (peptide, not shown: large carriers)
peptide: YCEGHLPQYMWKCL
notes: as for B2
Anti-CD28 Fab signal in the presence of CD28 (phage binding ELISA) [3]: 0.17
Anti-CD28 Fab signal (phage binding ELISA) [4]: 2.44

B22: Phage-512 (peptide, not shown: large carriers)
peptide: YCEGHLPQYMQKCL
modifications: cysteine pairing not given here; also: displayed on phage as fusion to pIII, linker, pIII sequence and order not given here
notes: as for B2
Anti-CD28 Fab signal in the presence of CD28 (phage binding ELISA) [3]: 0.12
Anti-CD28 Fab signal (phage binding ELISA) [4]: 2.39

B23: Phage-481 (peptide)
peptide: YCEGHLPEYIEKCL
notes: also called Peptide-120
Phage binding ELISA, Anti-CD28 Fab signal in the presence of CD28 [7]: 0.08
Phage binding ELISA, Anti-CD28 Fab (SEQ ID NOs: 696, 697) signal [8]: 2.06

B24: Phage-516 (peptide)
peptide: YCDGHLPEYLAKCL
notes: as for B5
Phage binding ELISA, Anti-CD28 Fab signal in the presence of CD28 [5]: 0.11
Phage binding ELISA, Anti-CD28 Fab signal [6]: 2.38

B25: Phage-521 (peptide)
peptide: YCDGHLPEYMAKCL
notes: as for B5
Phage binding ELISA, Anti-CD28 Fab signal in the presence of CD28 [5]: 0.13
Phage binding ELISA, Anti-CD28 Fab signal [6]: 2.37

B26: Phage-501 (peptide, not shown: large carriers)
peptide: YCAGHAPEYMEKCL
notes: as for B2
Anti-CD28 Fab signal in the presence of CD28 (phage binding ELISA) [3]: 0.09
Anti-CD28 Fab signal (phage binding ELISA) [4]: 2.45

B27: Phage-478 (peptide)
peptide: YCEGHSPEYILKCL
Phage binding ELISA, Anti-CD28 Fab signal in the presence of CD28 [7]: 0.06
Phage binding ELISA, Anti-CD28 Fab (SEQ ID NOs: 696, 697) signal [8]: 1.75

B28: Phage-479 (peptide)
peptide: YCEGHRPEYILKCL
Phage binding ELISA, Anti-CD28 Fab signal in the presence of CD28 [7]: 0.06
Phage binding ELISA, Anti-CD28 Fab (SEQ ID NOs: 696, 697) signal [8]: 1.27

B29: Phage-482 (peptide)
peptide: YCEGHAPEYIAKCL
Phage binding ELISA, Anti-CD28 Fab signal in the presence of CD28 [7]: 0.09
Phage binding ELISA, Anti-CD28 Fab (SEQ ID NOs: 696, 697) signal [8]: 2.15

B30: Phage-483 (peptide)
peptide: YCEGHAPEYIRKCL
Phage binding ELISA, Anti-CD28 Fab signal in the presence of CD28 [7]: 0.08
Phage binding ELISA, Anti-CD28 Fab (SEQ ID NOs: 696, 697) signal [8]: 1.63

B31: Phage-484 (peptide)
peptide: YCEGHAPEYIWKCL
Phage binding ELISA, Anti-CD28 Fab signal in the presence of CD28 [7]: 0.07
Phage binding ELISA, Anti-CD28 Fab (SEQ ID NOs: 696, 697) signal [8]: 1.63

B32: Phage-475 (peptide)
peptide: YCAGHTEEHYVKCM
notes: also called Peptide-96
Phage binding ELISA, Anti-CD28 Fab signal in the presence of CD28 [7]: 0.07
Phage binding ELISA, Anti-CD28 Fab (SEQ ID NOs: 696, 697) signal [8]: 0.62

B33: Phage-477 (peptide)
peptide: YCAGHSHEYLAKCE
notes: also called Peptide-98
Phage binding ELISA, Anti-CD28 Fab signal in the presence of CD28 [7]: 0.06
Phage binding ELISA, Anti-CD28 Fab (SEQ ID NOs: 696, 697) signal [8]: 0.86

B34: Phage-502 (peptide, not shown: large carriers)
peptide: YCDGHSPEYMWKCL
notes: as for B2
Anti-CD28 Fab signal in the presence of CD28 (phage binding ELISA) [3]: 0.09
Anti-CD28 Fab signal (phage binding ELISA) [4]: 2.44

B35: Phage-3994 (peptide)
peptide: EWPICRPSWMCDDF
Phage binding ELISA signal, Anti-PSMA Fab in presence of PSMA antigen (Anti-PSMA Fab [1]): 0.0604
Phage binding ELISA signal, Anti-PSMA Fab (Anti-PSMA Fab [2]): 0.63

B36: Phage-480 (peptide)
peptide: YCEGHEGIYFWKCL
Phage binding ELISA, Anti-CD28 Fab signal in the presence of CD28 [7]: 0.06
Phage binding ELISA, Anti-CD28 Fab (SEQ ID NOs: 696, 697) signal [8]: 2.07

B37: Phage-517 (peptide)
peptide: YCAGHMPEYMAKCL
notes: as for B5
Phage binding ELISA, Anti-CD28 Fab signal in the presence of CD28 [5]: 0.11
Phage binding ELISA, Anti-CD28 Fab signal [6]: 2.38

B38: Phage-472 (peptide)
peptide: DCPWLSGFSRPLLC
notes: also called Peptide-93
Phage binding ELISA, Anti-CD28 Fab signal in the presence of CD28 [7]: 0.07
Phage binding ELISA, Anti-CD28 Fab (SEQ ID NOs: 696, 697) signal [8]: 1.27

B39: Phage-519 (peptide)
peptide: YCEGHTAEYMQKCL
notes: as for B5
Phage binding ELISA, Anti-CD28 Fab signal in the presence of CD28 [5]: 0.08
Phage binding ELISA, Anti-CD28 Fab signal [6]: 2.38

B40: Phage-518 (peptide)
peptide: YCDGHLPEYMSKCM
notes: as for B5
Phage binding ELISA, Anti-CD28 Fab signal in the presence of CD28 [5]: 0.14
Phage binding ELISA, Anti-CD28 Fab signal [6]: 2.38
